B1: CAMK2A (parent)
chain: ILLVGYPPFWDEDQHRLYKQIKAG
B2: PPP2R2B (parent)
chain: RNTKRDVTLEASRENSKPRAILKP

Variants of: B1
Assay: protein stability index of a GFP-peptide fusion (GPS, HEK-293T) (PSI 1-6); higher = more stable
Details: c terminus: a fixed tail appended
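Also: lentivirally expressed fusions sorted by FACS into six bins by GFP to DsRed ratio, PSI derived from sequencing read proportions per bin multiplied by bin number.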

Variant | protein stability index
ILLVGYPPFWDEDQHRLYKQPKAG | 1.42
ILLVGYPPFWDEDQHRLYKQEKAG | 1.92
ILLVGYPPFWDEDQHRLYKQRKAG | 2.05
ILLVGYPPFWDEDQHRLYKQCKAG | 2.35
ILLVGYPPFWDEDQHRLYKQVKAG | 1.89
ILLVGYPPFWDEDQHRLYKQSKAG | 1.82
ILLVGYPPFWDEDQHRLYDQIKAG | 2.82
ILLVGYPPFWDEDQHRLYTQIKAG | 1.72
ILLVGYPPFWDEDQHRLYQQIKAG | 2.79
ILLVGYPPFWDEDQHRPYKQIKAG | 2.03
ILLVGYPPFWDEDQHRQYKQIKAG | 2.3
ILLVGYPPFWDEDQHRHYKQIKAG | 1.75
ILLVGYPPFWDEDQHRAYKQIKAG | 1.62
ILLVGYPPFWDEDQHRKYKQIKAG | 1.74
ILLVGYPPFWDEDQHRVYKQIKAG | 2.21
ILLVGYPPFWDEIQHRLYKQIKAG | 2.18
ILLVGYPPFWDEQQHRLYKQIKAG | 2.42
ILLVGYPPFWDELQHRLYKQIKAG | 3.98
ILLVGYPPFWDEAQHRLYKQIKAG | 3.24
ILLVGYPPFWDEDVHRLYKQIKAG | 2.89
ILLVGYPPFWDEDAHRLYKQIKAG | 2.65
ILLVGYPPFWDEDTHRLYKQIKAG | 2.98
ILLVGYPKFWDEDQHRLYKQIKAG | 2.06
ILLVGYPNFWDEDQHRLYKQIKAG | 4.23

Variant | protein stability index
ILLVGYPLFWDEDQHRLYKQIKAG | 1.81
ILLVGYPEFWDEDQHRLYKQIKAG | 2.1
ILLVGYPFFWDEDQHRLYKQIKAG | 2.95
ILLVGYPDFWDEDQHRLYKQIKAG | 1.67
ILLVGDPPFWDEDQHRLYKQIKAG | 2.12
ILLVGGPPFWDEDQHRLYKQIKAG | 2.23
ILLVGHPPFWDEDQHRLYKQIKAG | 1.28
ILLVGPPPFWDEDQHRLYKQIKAG | 2.19
ILLVGYPPFWDEDQHRLIKQIKAG | 2.21
ILLVGYPPFWDEDQHRLMKQIKAG | 2.16
ILLVGYPPFWDEDQHRLGKQIKAG | 2.79
ILLVGYPPFWDEDQHRLCKQIKAG | 1.73
ILLVGYPPFWDEDQHRLLKQIKAG | 2.48
ILLVGYPPFWDEDQHHLYKQIKAG | 2.12
ILLVGYPPFWDEDQHSLYKQIKAG | 2.5
ILLVGYPPFWDEDQHQLYKQIKAG | 1.84
ILLVGYEPFWDEDQHRLYKQIKAG | 1.43
ILLVGYIPFWDEDQHRLYKQIKAG | 2.46
IDLVGYPPFWDEDQHRLYKQIKAG | 2.12
IYLVGYPPFWDEDQHRLYKQIKAG | 2.93
IVLVGYPPFWDEDQHRLYKQIKAG | 1.67
IFLVGYPPFWDEDQHRLYKQIKAG | 1.3
IALVGYPPFWDEDQHRLYKQIKAG | 1.6
ILLVGYPPFWDEDQHRLYKQIKQG | 2.82

Variant | protein stability index
ILLVGYPPFWDEDQHRLYKQIKVG | 1.98
ILLVGYPPFWDEDQHRLYKQIKPG | 1.8
ILLVGYPPFWDEDQHRLYKQIKFG | 2.23
ILLVGYPPFWDEDQHRLYKQIKSG | 2.46
ILLVGYPPFWDEDQHRLYKQIKGG | 1.72
ILLVGYPPFWDEDQHRLYKQIKHG | 1.58
ILLVGYPPFWDEDQHRLYKQIKLG | 2.11
ILLVGYPPFWDEDQHRLYKQIKTG | 1.27
ILLVGYPPFWDEDQHRLYKQIKNG | 2.67
ILLVGYPPTWDEDQHRLYKQIKAG | 1.84
ILLVGYPPLWDEDQHRLYKQIKAG | 2.27
ILLVGYPPEWDEDQHRLYKQIKAG | 1.44
ILLVGYPPVWDEDQHRLYKQIKAG | 2.37
ILLVGYPPFWDEDQHRLYKQIKAR | 2.4
ILLVGYPPFWDEDQHRLYKQIKAL | 1.8
ILLVGYPPFWDEDQHRLYKQIKAV | 2.81
ILLVGYPPFWDEDQHRLYKQIKAC | 2.27
ILLVGYPPFWDEDQHRLYKQIKAW | 1.96
ILLVGYPPFWDEDQHRLYKQIKAQ | 3.66
ILLVPYPPFWDEDQHRLYKQIKAG | 3.17
ILLVDYPPFWDEDQHRLYKQIKAG | 1.55
ILLVGYPPFWDEDQFRLYKQIKAG | 2.5
ILLVGYPPFWDEDQDRLYKQIKAG | 2.13
ILLVGYPPFWDEDQNRLYKQIKAG | 2.2

Variant | protein stability index
ILLVGYPPFWDEDQARLYKQIKAG | 2.55
ILLVGYPPFWDEDQLRLYKQIKAG | 2.16
ILLVGYPPFWDEDQIRLYKQIKAG | 2.31
ILLVGYPPFWDEDQHRLYKQISAG | 3.22
ILLVGYPPFWDEDQHRLYKQIFAG | 2.94
ILLVGYPPFWDEDQHRLYKQIDAG | 1.97
ILLVGYPPFWDEDQHRLYKQIRAG | 1.91
ILLVGYPPFWDEDQHRLYKQIVAG | 2.15
ILLVGYPPFWDEDQHRLYKQIHAG | 1.52
ILLVGYPPFWDYDQHRLYKQIKAG | 2.57
ILLVGYPPFWDHDQHRLYKQIKAG | 2.29
ILLVGYPPFWDVDQHRLYKQIKAG | 2.56
ILLVGYPPFWDDDQHRLYKQIKAG | 2.27
ILLVGYPPFWDPDQHRLYKQIKAG | 2.84
ILLVGYPPFWGEDQHRLYKQIKAG | 1.55
ILLVGYPPFWWEDQHRLYKQIKAG | 2.44
ILLVGYPPFWHEDQHRLYKQIKAG | 2.29
ILLVGYPPFWYEDQHRLYKQIKAG | 1.61
ILLVGYPPFWKEDQHRLYKQIKAG | 2.46
ILLVGYPPFWVEDQHRLYKQIKAG | 2.18
ILLVGYPPFWPEDQHRLYKQIKAG | 2.35
ILLVGYPPFWSEDQHRLYKQIKAG | 2.62
ILLVGYPPFWNEDQHRLYKQIKAG | 2.59
PLLVGYPPFWDEDQHRLYKQIKAG | 2.27

Variant | protein stability index
ALLVGYPPFWDEDQHRLYKQIKAG | 2.25
TLLVGYPPFWDEDQHRLYKQIKAG | 1.58
ILLGGYPPFWDEDQHRLYKQIKAG | 2.24
ILLHGYPPFWDEDQHRLYKQIKAG | 2.23
ILLDGYPPFWDEDQHRLYKQIKAG | 2.4
ILLVGYPPFWDEDQHRLYKKIKAG | 1.56
ILLVGYPPFWDEDQHRLYKWIKAG | 2.02
ILLVGYPPFWDEDQHRLYKDIKAG | 1.9
ILLVGYPPFWDEDQHRLYKHIKAG | 2.86
ILLVGYPPFWDEDQHRLYKIIKAG | 1.96
ILLVGYPPFWDEDQHRLYKAIKAG | 1.78
ILLVGYPPFWDEDQHRLYKFIKAG | 2.69
ILLVGYPPFWDEDQHRLYKPIKAG | 1.39
ILLVGYPPFDDEDQHRLYKQIKAG | 1.69
ILLVGYPPFSDEDQHRLYKQIKAG | 2.45
ILLVGYPPFHDEDQHRLYKQIKAG | 1.56
ILLVGYPPFQDEDQHRLYKQIKAG | 2.27
ILLVGYPPFEDEDQHRLYKQIKAG | 1.78
ILLVGYPPFPDEDQHRLYKQIKAG | 3.75
ILLVGYPPFGDEDQHRLYKQIKAG | 1.86
ILLVGYPPFIDEDQHRLYKQIKAG | 2.71

Variants of: B2
Assay: as above
Details: c terminus: a fixed tail appended

Variant | protein stability index
GNTKRDVTLEASRENSKPRAILKP | 4.9
FNTKRDVTLEASRENSKPRAILKP | 4.29
WNTKRDVTLEASRENSKPRAILKP | 4.45
YNTKRDVTLEASRENSKPRAILKP | 4.22
INTKRDVTLEASRENSKPRAILKP | 4.61
CNTKRDVTLEASRENSKPRAILKP | 4.88
ANTKRDVTLEASRENSKPRAILKP | 4.61
ENTKRDVTLEASRENSKPRAILKP | 4.31
PNTKRDVTLEASRENSKPRAILKP | 4.27
SNTKRDVTLEASRENSKPRAILKP | 4.47
TNTKRDVTLEASRENSKPRAILKP | 4.99
VNTKRDVTLEASRENSKPRAILKP | 4.44
QNTKRDVTLEASRENSKPRAILKP | 4.81
HNTKRDVTLEASRENSKPRAILKP | 4.72
NNTKRDVTLEASRENSKPRAILKP | 4.79
DNTKRDVTLEASRENSKPRAILKP | 4.97
KNTKRDVTLEASRENSKPRAILKP | 4.65
MNTKRDVTLEASRENSKPRAILKP | 4.44
LNTKRDVTLEASRENSKPRAILKP | 4.62
RLTKRDVTLEASRENSKPRAILKP | 3.72
RTTKRDVTLEASRENSKPRAILKP | 4.42
RYTKRDVTLEASRENSKPRAILKP | 4.37
RRTKRDVTLEASRENSKPRAILKP | 4.02
RETKRDVTLEASRENSKPRAILKP | 4.82

Variant | protein stability index
RSTKRDVTLEASRENSKPRAILKP | 4.62
RGTKRDVTLEASRENSKPRAILKP | 4.81
RWTKRDVTLEASRENSKPRAILKP | 3.34
RHTKRDVTLEASRENSKPRAILKP | 4.66
RPTKRDVTLEASRENSKPRAILKP | 4.31
RATKRDVTLEASRENSKPRAILKP | 4.31
RVTKRDVTLEASRENSKPRAILKP | 4.1
RQTKRDVTLEASRENSKPRAILKP | 4.06
RDTKRDVTLEASRENSKPRAILKP | 4.89
RKTKRDVTLEASRENSKPRAILKP | 4.51
RITKRDVTLEASRENSKPRAILKP | 4.69
RFTKRDVTLEASRENSKPRAILKP | 4.51
RMTKRDVTLEASRENSKPRAILKP | 4.4
RCTKRDVTLEASRENSKPRAILKP | 4.27
RNTARDVTLEASRENSKPRAILKP | 4.43
RNTIRDVTLEASRENSKPRAILKP | 4.29
RNTGRDVTLEASRENSKPRAILKP | 4.61
RNTMRDVTLEASRENSKPRAILKP | 4.71
RNTNRDVTLEASRENSKPRAILKP | 4.77
RNTLRDVTLEASRENSKPRAILKP | 4.61
RNTERDVTLEASRENSKPRAILKP | 4.6
RNTHRDVTLEASRENSKPRAILKP | 4.84
RNTCRDVTLEASRENSKPRAILKP | 3.8
RNTFRDVTLEASRENSKPRAILKP | 4.42

Variant | protein stability index
RNTRRDVTLEASRENSKPRAILKP | 4.54
RNTPRDVTLEASRENSKPRAILKP | 4.88
RNTQRDVTLEASRENSKPRAILKP | 4.96
RNTDRDVTLEASRENSKPRAILKP | 4.72
RNKKRDVTLEASRENSKPRAILKP | 4.91
RNQKRDVTLEASRENSKPRAILKP | 4.75
RNMKRDVTLEASRENSKPRAILKP | 4.35
RNIKRDVTLEASRENSKPRAILKP | 4.45
RNHKRDVTLEASRENSKPRAILKP | 4.4
RNNKRDVTLEASRENSKPRAILKP | 3.95
RNRKRDVTLEASRENSKPRAILKP | 4.45
RNDKRDVTLEASRENSKPRAILKP | 4.81
RNLKRDVTLEASRENSKPRAILKP | 4.64
RNGKRDVTLEASRENSKPRAILKP | 4.29
RNVKRDVTLEASRENSKPRAILKP | 4.57
RNSKRDVTLEASRENSKPRAILKP | 4.61
RNCKRDVTLEASRENSKPRAILKP | 4.55
RNAKRDVTLEASRENSKPRAILKP | 4.87
RNYKRDVTLEASRENSKPRAILKP | 3.84
RNPKRDVTLEASRENSKPRAILKP | 4.53
RNFKRDVTLEASRENSKPRAILKP | 4.17
RNWKRDVTLEASRENSKPRAILKP | 4.05
RNEKRDVTLEASRENSKPRAILKP | 4.88

From the supplement of paper PMC10567573
